For the data set, the target named is DDX43 (Mus musculus, UniProt D3Z6P9 1-646). In words: EMSA; EMSA: 10 nM biotin-RNA, 50 mM Tris-HCl pH 7.5, 100 mM KCl, 2.5% glycerol, 0.05% NP-40, 4 mM EDTA, 1 mM DTT, RiboLock 2 U, 37 C 30 min; 8% native TBE PAGE at 4 C; G4 folded in 50 mM Tris-HCl pH 7.5, 150 mM KCl, 0.1 mM EDTA. The settings on record: protein: recombinant; tags: His tag (Ni-NTA, pET28a); label: 3' biotin; single strand. On the technique in general: A gel shift assay detects complexes by their altered migration in electrophoresis.
Sequence of DDX43 (D3Z6P9 entry or part of it): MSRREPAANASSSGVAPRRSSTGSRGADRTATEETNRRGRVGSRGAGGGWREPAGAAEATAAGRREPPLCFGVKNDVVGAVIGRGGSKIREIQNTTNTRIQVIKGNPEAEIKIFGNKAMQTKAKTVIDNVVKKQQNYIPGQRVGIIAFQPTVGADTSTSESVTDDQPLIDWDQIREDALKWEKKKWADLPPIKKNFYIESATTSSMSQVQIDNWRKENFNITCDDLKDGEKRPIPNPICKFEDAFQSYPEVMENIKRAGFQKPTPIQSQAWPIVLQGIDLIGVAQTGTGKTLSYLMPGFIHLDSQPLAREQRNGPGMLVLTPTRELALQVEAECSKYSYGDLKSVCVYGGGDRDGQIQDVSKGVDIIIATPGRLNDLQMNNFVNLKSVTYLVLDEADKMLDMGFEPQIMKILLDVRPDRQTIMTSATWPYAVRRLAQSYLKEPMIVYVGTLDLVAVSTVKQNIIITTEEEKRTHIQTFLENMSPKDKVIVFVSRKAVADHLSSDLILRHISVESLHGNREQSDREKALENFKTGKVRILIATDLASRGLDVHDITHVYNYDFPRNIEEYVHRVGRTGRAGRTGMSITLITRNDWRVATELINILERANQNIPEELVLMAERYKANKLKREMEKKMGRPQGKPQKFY

Turning to ACCGCUGCCGUCGCUCCG (ssRNA) [ssRNA], the binding result is “no binding”.
